The text below walks through data of the supplement of paper PMC10567573.

The chains are these.
B1: TRIM43 (parent)
chain: NRFRVEISFHFEVTNHNIRLFEDV
B2: AUP1 (parent)
chain: EGLLRFSSWPFSIQDVVQPLTLQV
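Also: lentivirally expressed fusions sorted by FACS into six bins by GFP to DsRed ratio, PSI derived from sequencing read proportions per bin multiplied by bin number.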

One data set covers variants of B1. Kind of data set: protein stability index of a GFP-peptide fusion (GPS, HEK-293T) (PSI 1-6); higher = more stable. Conditions: c terminus: a fixed tail appended.
NRFRVEISFHFEVTNHNIRLFEMV [D23M]: the protein stability index came out at 2.12. Take NRFRVEISFHFEVTNHNIRLFENV [D23N]: the protein stability index was 2.91. Consider NRFRVEISFHFEVTNHNIRLFEKV [D23K], for which the protein stability index came to 1.95. Still for that read-out and setting: under NRFRVEISFHFEVTNHNIRLFEEV [D23E] stands 2.56. The same measure, in the same setting: under NRFRVEISFHFEVTNHNIRLFEFV [D23F] stands 3.88; under NRFRVEISFHFEVTNHNIRLFEYV [D23Y], 2.39; under NRFRVEISFHFEVTNHNIRLFEQV [D23Q], 2.92. Still for that read-out and setting: under NRFRVEISFHFEVTNHNIRLFEIV [D23I] stands 3.66; under NRFRVEISFHFEVTNHNIRLFEGV [D23G], 3.13; under NRFRVEISFHFEVTNHNIRLFKDV [E22K], 2.02. Consider NRFRVEISFHFEVTNHNIRLFLDV [E22L], for which the protein stability index amounted to 2.29. As for NRFRVEISFHFEVTNHNIRLFHDV [E22H], the protein stability index was 3.18.

Take NRFRVEISFHFEVTNHNIRLFPDV [E22P]: the protein stability index was 2.14.

In the case of NRFRVEISFHFEVTNHNIRLFTDV [E22T], the protein stability index came out at 2.66. In the case of NRFRVEISFHFEVTNHNIRLFQDV [E22Q], the protein stability index came out at 2.31.

On to NRFRVEISFHFEVTNHNIRLFDDV [E22D], for which the protein stability index came out at 2.4.

With NRFRVEISFHFEVTNHNIRLFEDK [V24K], the protein stability index was 2.85. Still for that read-out and setting: under NRFRVEISFHFEVTNHNIRLFEDL [V24L] stands 1.95.

As to NRFRVEISFHFEVTNHNIRLFEDQ [V24Q], the protein stability index turned out to be 3.09. With NRFRVEISFHFEVTNHNIRLFEDT [V24T], the protein stability index worked out at 2.44.

As to NRFRVEISFHFEVTNHNIRLFEDF [V24F], the protein stability index worked out at 2.43. Still for that read-out and setting: under NRFRVEISFHFEVTNHNIRLFEDH [V24H] stands 4.23; under NRFRVEISFHFEVTNHNIRLFEDI [V24I], 2.14. Still for that read-out and setting: with NRFRVEISFHFEVTNHNIRYFEDV [L20Y] the figure was 2.13.

On to NRFRVEISFHFEVTNHNIRQFEDV [L20Q], for which the protein stability index came to 3.28. Same read-out and setting: under NRFRVEISFHFEVTNHNIRRFEDV [L20R] stands 3.74; under NRFRVEISFHFEVTNHNIRVFEDV [L20V], 4.23. As for NRFRVEISFHFEVTNHNIRFFEDV [L20F], the protein stability index stood at 3.05. For NRFRVEISFHFEVTNHNSRLFEDV [I18S], the protein stability index was 2.35.

As for NRFRVEISFHFEVTNHNVRLFEDV [I18V], the protein stability index was found to be 2.97. With NRFRVEISFHFEVTNHNTRLFEDV [I18T], the protein stability index stood at 2.09. For the variant NRFRVEISFHFEVTNHNWRLFEDV [I18W], the protein stability index stood at 3.01. Consider NRFRVEISFHFEVTNHNYRLFEDV [I18Y], for which the protein stability index came out at 3.23. As for NRFRVEISFHFEVTNHNIRLREDV [F21R], the protein stability index turned out to be 1.88. Same read-out and setting: under NRFRVEISFHFEVTNHNIRLCEDV [F21C] stands 2.67; under NRFRVEISFHFEVTNHNIRLWEDV [F21W], 2. Same read-out and setting: with NRFRVEISFHFEVTNHNIRLEEDV [F21E] the figure was 2.31. The same measure, in the same setting: with NRFRVEISFHFEVTNHNIRLLEDV [F21L] the figure was 2.29; with NRFRVEISFHFEVTNHNIRLYEDV [F21Y], 3.98; with NRFRVEISFHFEVTNHNIRLPEDV [F21P], 1.76. Turning to NRFRVEISFHFEVTNHNIRLQEDV [F21Q], the protein stability index is 3.09.

Regarding NRFRVEISFHFEVTNHNISLFEDV [R19S], the protein stability index was found to be 3.39. The same measure, in the same setting: with NRFRVEISFHFEVTNHNIQLFEDV [R19Q] the figure was 2.14. Turning to NRFRVEISFHFEVTNHNIHLFEDV [R19H], the protein stability index is 3.79. Same read-out and setting: with NRFRVEISFHFEVTNHNIILFEDV [R19I] the figure was 2.06; with NRFRVEISFHFEVTNHNIDLFEDV [R19D], 3.62. Same read-out and setting: under NRFRVEISFHFEVTNHNIPLFEDV [R19P] stands 1.69; under NRFRVEISFHFEVTNHNIYLFEDV [R19Y], 3.54.

In the next data set the parent is B2. The data set is described as above. Conditions: c terminus: a fixed tail appended.
As for EGLGRFSSWPFSIQDVVQPLTLQV [L4G], the protein stability index worked out at 4.

Take EGLIRFSSWPFSIQDVVQPLTLQV [L4I]: the protein stability index was 3.16. The same measure, in the same setting: under EGLNRFSSWPFSIQDVVQPLTLQV [L4N] stands 1.52; under EGLDRFSSWPFSIQDVVQPLTLQV [L4D], 2.08.

For EGLSRFSSWPFSIQDVVQPLTLQV [L4S], the protein stability index turned out to be 1.27. The same measure, in the same setting: with EGLKRFSSWPFSIQDVVQPLTLQV [L4K] the figure was 1.19. Still for that read-out and setting: with EGLCRFSSWPFSIQDVVQPLTLQV [L4C] the figure was 3.27; with EGELRFSSWPFSIQDVVQPLTLQV [L3E], 2.41. As to EGVLRFSSWPFSIQDVVQPLTLQV [L3V], the protein stability index is 2.22. The same measure, in the same setting: under EGKLRFSSWPFSIQDVVQPLTLQV [L3K] stands 2.2.

For EGTLRFSSWPFSIQDVVQPLTLQV [L3T], the protein stability index came to 4.12. Same read-out and setting: under EGDLRFSSWPFSIQDVVQPLTLQV [L3D] stands 1.83. On the same count and under the same terms, with EGCLRFSSWPFSIQDVVQPLTLQV [L3C] the figure was 4.98; with EGALRFSSWPFSIQDVVQPLTLQV [L3A], 1.76. The same measure, in the same setting: with EGPLRFSSWPFSIQDVVQPLTLQV [L3P] the figure was 2.44; with RGLLRFSSWPFSIQDVVQPLTLQV [E1R], 4.19; with MGLLRFSSWPFSIQDVVQPLTLQV [E1M], 1.43.

Consider CGLLRFSSWPFSIQDVVQPLTLQV [E1C], for which the protein stability index worked out at 3.48. PGLLRFSSWPFSIQDVVQPLTLQV [E1P]: the protein stability index turned out to be 1.82. Consider IGLLRFSSWPFSIQDVVQPLTLQV [E1I], for which the protein stability index was 1.02.

TGLLRFSSWPFSIQDVVQPLTLQV [E1T]: the protein stability index was 1.8. As to YGLLRFSSWPFSIQDVVQPLTLQV [E1Y], the protein stability index was 2.78. Still for that read-out and setting: under NGLLRFSSWPFSIQDVVQPLTLQV [E1N] stands 2.31; under SGLLRFSSWPFSIQDVVQPLTLQV [E1S], 2.31.

On to ECLLRFSSWPFSIQDVVQPLTLQV [G2C], for which the protein stability index came to 3.51. The same measure, in the same setting: under EHLLRFSSWPFSIQDVVQPLTLQV [G2H] stands 3.65. The same measure, in the same setting: with EELLRFSSWPFSIQDVVQPLTLQV [G2E] the figure was 2.63; with ERLLRFSSWPFSIQDVVQPLTLQV [G2R], 2.83. The same measure, in the same setting: under EGLLGFSSWPFSIQDVVQPLTLQV [R5G] stands 3.46; under EGLLTFSSWPFSIQDVVQPLTLQV [R5T], 3.1. With EGLLMFSSWPFSIQDVVQPLTLQV [R5M], the protein stability index is 1.56. Take EGLLKFSSWPFSIQDVVQPLTLQV [R5K]: the protein stability index was 1.37. As to EGLLDFSSWPFSIQDVVQPLTLQV [R5D], the protein stability index was determined as 1.73. Same read-out and setting: with EGLLFFSSWPFSIQDVVQPLTLQV [R5F] the figure was 3.67; with EGLLEFSSWPFSIQDVVQPLTLQV [R5E], 4.2.

For the variant EGLLSFSSWPFSIQDVVQPLTLQV [R5S], the protein stability index is 2.64. Still for that read-out and setting: under EGLLWFSSWPFSIQDVVQPLTLQV [R5W] stands 3.31; under EGLLRDSSWPFSIQDVVQPLTLQV [F6D], 1.46. The same measure, in the same setting: with EGLLRKSSWPFSIQDVVQPLTLQV [F6K] the figure was 1.7; with EGLLRASSWPFSIQDVVQPLTLQV [F6A], 1.15. Take EGLLRHSSWPFSIQDVVQPLTLQV [F6H]: the protein stability index was determined as 1.34.

For the variant EGLLRESSWPFSIQDVVQPLTLQV [F6E], the protein stability index is 1.36. EGLLRQSSWPFSIQDVVQPLTLQV [F6Q]: the protein stability index came to 1.65.

Regarding EGLLRPSSWPFSIQDVVQPLTLQV [F6P], the protein stability index is 2.07. The same measure, in the same setting: with EGLLRNSSWPFSIQDVVQPLTLQV [F6N] the figure was 1.4; with EGLLRLSSWPFSIQDVVQPLTLQV [F6L], 2.09.
